Assay results as given in paper PMC3992431 (Current biology : CB, 2014).
Read-outs that look alike come from different tables or passages of the source.

Key:
actin filaments [1] = molecular target: T1, actin filaments (rabbit, UniProt P68135 1-377); test: co-sedimentation
actin filaments [2] = molecular target: T1, actin filaments; test: co-sedimentation; remark: listed apart in the source
[3] = molecular target: the molecule itself; test: two-color TIRF microscopy
[4] = molecular target: the molecule itself; test: two-color TIRF microscopy; remark: listed apart in the source

B1: INF2-FFC (domain or fragment)
chain: not shown
stoichiometry N (actin filaments [1]): 1 INF2 monomer:actin monomer

B2: INF2-FF (domain or fragment)
chain: not shown
fold lower affinity than INF2-FFC (actin filaments [2]): 5 fold

B3: GFP-INF2-FFC (domain or fragment)
chain: not shown
stoichiometry N [3]: 2.17 molecules | stoichiometry N [4]: 2.06 molecules
